In a protein production outcome set (Wang et al. 2014):

experiment: label from the status in PepcDB records
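Further: failed if final PepcDB status was selected cloned or expressed and not failed if soluble or beyond.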

Sequence	protein production
GERCEPIELLSINLPEESSSRIIDIVTRRKGEMVMMENKNDRVFMEFHIPSRGIIGLNNAVLTASAGEAVIAHRFLEFQPWKGEIERRSNGSIIALESGTAYAYALNNLQSRGRFFISPQEEVYAG	failed
GFSHRSQQLLEQSVAKQLPLLERKYHQKNLEAAMVVTDIASGEIRALVGGRESGYAGFNRALNAKRHIGSLIKPAIYVAALERYQQYNFATILDDKAITLRNGTGKKWQPKNYDGKYRGQVSLIEGLVFSLNVPTINLGMSLGLDSVADAIKALGYQQKLKMRPSVLLGAVNMSPLEINQLYLAIANNGYYQKTHTITKILSSNNETLWQKQQSSEQRLSSNAAYLLDYALERVTQVGTARSLTWRLNNKKVAGKTGTSNALRDSWFIGYDSKHLITTWLGKDNNKPTGLTGSSGALPLFADFINKQGVINKVEAK	failed
GGEVHAAWHLRYAGRDFFVKCDERELLPGFTAEADQLELLSRSKTVTVPKVWAVGADRDYSFLVMDYLPPRPLDAHSAFILGQQIARLHQWSDQPQFGLDFDNALSTTPQPNTWQRRWSTFFAEQRIGWQLELAAEKGIAFGNIDAIVEHIQQRLASHQPQPSLLHGDLWSGNCALGPDGPYIFDPACYWGDRECDLAMLPLHTEQ	failed
GKIEEVVLGATKADGGTREYTVTLGGERSLAFYTFDAPQPHLPAIAIDVFDRRPMLAKAVRMHYEDVLDNPAEWARKCVKKFGADLVTLHLISTDPLLDDTPASEAVKVLEDVLQAVKCPIIVGGSGNKEKDPEVLEKAAEVAEGERIMLASATLDMDWERIANAAKKYGHVVLSWTQMDINNQKTLNRYLLKRVEMPRDSIVMDPTTAALGYGLDYAFTNMERIRISGLKGDTDLNFPISSGTTNAWGAREAWMVDSPIEEDTPWGPRELRGPIWEIITGLTLSLAGVDLFMMMHPVAVAVLKEVFNTLGGKVSGGVADPGEWIFME	failed
GKPKTDTDFQTYNGDGFKLQIPSKWNPNKEVEYPGQVLRFEDNFDATSNVIVAITPTDKKSITDFGSPEQFLSQVDYLLGRQAYSGKTDSEGGFESDAVAIANVLETSTAEVGGKQYYYLSILTRTADGNEGGKHQLVTATVNDGKLYICKAQAGDKRWFKGAKKFVENTATSFSLA	not failed
GLDTGALDQQQNNNGRESIRTVNVSVNNAVTKIVSNMSPAVVGVVNIQKSDIWGESGEAGSGSGVIYKKNDHSAYVVTNHHVIEGASQIEISLKDGSRVSADLVGSDQLMDLAVLRVKSDKIKAVADFGNSDKVKSGEPVIAIGNPLGLEFAGSVTQGVISGTERAIPVDSNGDGQPDWNAEVLQTDAAINPGNSGGALLNMDGKVIGINSMKIAESAVEGIGLSIPSKLVIPVIEDLERYGKVKRPFLGIEMKSLSDIASYHWDETLKLPKNVTNGAVVMGVDAFSPAGKAGLKELDVITEFDGYKVNDIVDLRKRLYQKKVGDRVKVKFYRGGKEKSVDIKLSSA	failed
GLEVTVWNRSAAACEPLVALGAARAEEVGELFGLDVVISMLADDQAIRGVLLDSGALERARPGLIHLSMSTLSLDCVEALDQAHQRQGLAFVAAPVFGRTDVAEAGKLNIVVGGPEEAIEQVKALLEIMGQKTWFFGKDPRGAMAVKISGNFMIASAIESMGESVALVKRLGVEPGRFMELMSSTLFDAPVYRNYGPQIVEQRFTPARFRLVLGLKDVDLALSAGKRHNVPLPLASLLHDVLLEAIAHGDGESDWTALAKVALSRSGQI	failed
GLNHMTARYLREEHHMFRAAFRKFLEKEAYPHYNDWEKRGIIPRSFWAKMGENGFLCPWVDEKYGGLNADFAYSVVINEELEKVGSSLVGIGLHNDIVTPYIASYGTEEQKQKWLPKCVTGELITAIAMTEPGAGSDLANISTTAVKDGDYYIVNGQKTFITNGIHADLIVVACKTDPQAKPPHRGISLLVVERDTPGFTRGRKLEKVGLHAQDTAELFFQDAKVPAYNLLGEEGKGFYYLMEKLQQERLVVAIAAQTAAEVMFSLTKQYVKQRTAFGKRVSEFQTVQFRLAEMATEIALGRTFVDRVIEEHMAGKQIVTEVSMAKWWITEMAKRVAAEAMQLHGGYGYMEEYEIARRYRDIPVSAIYAGTNEMMKTIIARQLDL	not failed
GLTTLIEMIETLSATRTINEVADVVRGAARRILDADGVAFVMRDKDLCWYVDEDAIGPLWKGKRFPMDQCVAGRVMKSGRVVVCPDIYADPDMPHDAYRPTFVKSLAIAPVRPRDPIAAIAVYWARPYDPPPEVLRKLQVVARATASALESGRLNDYLAASLEHGHFLLRELD	failed
GMKTSGKQDEAWIMSRLIKQLTDMGFPREPAEEALKSNNMNLDQAMSALLEKKVDVDKRGLGVTDHNGMAAK	not failed
GMNSGKVAFIVTKNGKRICDVIDECSQRGSTILKAQGGYKQDDIQVVMCACNSKEMYQVRKSVKDTDPDSFIVVVESHEVHGEGFKMTNIGEAEN	failed
GPLGSMIVFVRFNSSHGFPVEVDSDTSIFQLKEVVAKRQGVPADQLRVIFAGKELRNDWTVQNCDLDQQSIVHIVQRPWRK	not failed
GPSRMRHERVVIIKNMFHPMDFEDDPLVLNEIREDLRVECSKFGQIRKLLLFDRHPDGVASVSFRDPEEADYCIQTLDGRWFGGRQITAQAWDGTTDYQ	not failed
GPSSSHTVGPMLAANAFLQLLEQKNLFDKTQRVKVELYGSLALTGKGHGTDKAILNGLENKAPETVDPASMIPRMHEILDSNLLNLAGKKEIPFHEATDFLFLQKELLPKHSNGMRFSAFDGNANLLIEQVYYSIGGGFITTEEDFDK	not failed
GRPDGPVRTKKLKRGRPGRKKKKVLGCPAVAGEEEVDGYETDHQDYCEVCQQGGEIILCDTCPRAYHLVCLDPELDRAPEGKWSCPHCEKEGVQ	failed
GRYEIRFSGAGGQGLILAGVIMAEAASIYDGKQAVQSQSYGPEARGGASKSEVIISDGPVDYPKATQCDALLALTQEACDKYSADLKEGGVLLVDSDLVTKLPPGNYQTTAFNIINTAKNDVGREIVANIVALGAMVALTGVVSKEAAEKAVLSRVPEAFVELNRKAFQMGFEKALAAKK	not failed

Sequence	protein production
GSAASSALKGLIQQFTTITGASESVGKHMLEACNNNLEMAVTMFLDGGG	not failed
GSAHSDEQSSGTLSSPGQSDILLTAAQGTVRKAGALAVKNFLVHKKNKKVESATRRKWKHYWVSLKGCTLFFYESDGRSGIDHNSIPKHAVWVENSIVQAVPEHPKKDFVFCLSNSLGDAFLFQTTSQTELENWITAIHSACATAVAR	failed
GSALIDEIRSLGESLQGYNVRHINSTIIGGGVAEILSSLVPLMEDVGLTVNWEVLAGTTEFFHTTKLFHNGMHGQPVNITGEMLENYLAIAQKNQNLLDGDADLVVIHDQQPLGLTAFRGRTRGRWLWYCHVDPRYAVPEVWYFLAPMVATCDAAVFHLP	failed
GSAQPRHDAQRPALAPRSDGFDIHTYHPDFVADPYPLLRLIRSRAPVCRDQASIWWISRYADVSACLRDRRFSADPARLGAAGVRQGGASWFGHQQLQPLARFYDNFMLFNDAPRHTRLRRLFAPAFGPDAVRRWEARIEVLVEELLDSLLERREPDLLRDFAEPLTIRVAAELFGFPREDTGQLLPWGRDLAAGLDLAASHGDAGQINRSAVAFSDYLQRQARGWSDGSSRPPSGAAPSILDGAAMLEAGLGLEDLVAAYAMVFMAAFETTISMVGNATLALLTHPDQLDLLRRCPELAANAVEELLRFDGAVRGGVRCTLEEVEIGGQRIPPGEKVWLSFLAANRDPEMFAAPDRLQLQRANAKQHVAFAHGPHYCLGAYLARLELQCALRGLVRRRFALASEPTDLRWRRSSVFRTLERLPIVP	failed
GSGLDVKNLVDAIVTAEITPSQVRHDKQLNSVNTELSALGQLKSYLTNLQTSLAKLSSLSQFYTMKSTISDPNYFSATLGTGATKNTYQIEIQKLAQQHS	failed
GSHMKEDQVVAEEPGFQDEEESLFQDIDLLQKHGINVADIKKLKSVGICTIKGIQMTTRRALCNVKGLSEAKVDKIKEAANKLIEPGFLTAFEYSEKRKMVFHITTGSQEFDKLLGGGIESMAITEAFGEFRTGKTQLSHTLCVTAQLPGAGGYPGGKIIFIDTENTFRPDRLRDIADRFNVDHDAVLDNVLYARAYTSEHQMELLDYVAAKFHEEAGIFKLLIIDSIMALFRVDFSGRGELAERQQKLAQMLSRLQKISEEYNVAVFVTNQMTADPGATMTFQADPKKPIGGHILAHASTTRISLRKGRGELRIAKIYDSPEMPENEATFAITAGGIGDAKE	not failed
GSSGSSGMCGRFAQSQTREDYLALLAEDIERDIPYDPEPIGRYNVAPGTKVLLLSERDEHLHLDPVFWGYAPGWWDKPPLINARVETAATSRMFKPLWQHGRAICFADGWFEWKKEGDKKQPFFIYRADGQPIFMAAIGSTPFERGDEAEGFLIVTAAADQGLVDIHDRRPLVLSPEAAREWMRQEISGKEASEIAASGCVPANQFSWHPVSRAVGNVKNQGAELIQPV	not failed
GSSGSSGMSSMTQNLREVMKVMFKVPGFDRVLEKVTLVSAAPEKLICEMKVEEQHTNKLGTLHGGLTATLVDSISTMALMCTERGAPGVSVDMNITYMSPAKIGEEIVITAHILKQGKTLAFASVDLTNKTTGKLIAQGRHTKHLGNSGPSSG	not failed
GSSGSSGPTMEGPLRRKTLLKEGRKPALSSWTRYWVVLSGATLLYYGAKSLRGTDRKHYKSTPGKKVSIVGWMVQLPDDPEHPDIFQLNNPDKGNVYKFQTGSRFHAILWHKHLDDACKSSRPQVPANLMSFE	not failed
GSSGSSGSTVVMADVSQYHVNHLVTFCLGEEDGVHTVEDASRKLAVMDSQGRVWAQEMLLRVSPSQVTLLDPVSKEELESYPLDAIVRCDAVMPRGRSRSLLLLVCQEPERAQPDVHFFQGLLLGAELIREDIQGALQNYRSGRGERSGPSSG	not failed
GTVLVSIKSSLPENNFFDDALIDELLQQFASFGEVILIRFVEDKMWVTFLEGSSALNVLSLNGKELLNRTITIALKSP	not failed
GYDHKGMGITARGAWESVKRHFRALGRDCQNEDFRCIGVGDMSGDVFGNGMLLSRHSLLVAAFDHRHIFLDPMPDAALSFAERERLFKLPRSSWADYDATLISKGGGIYPRTLKSIQISPQVAEVLGLDKGIKQLSPNVLISAILKAPVDLFWNGGIGTYVKASSETHADVGDRANNALRVNGLELRCKVVGEGGNLGLTQLGRIEAAQRGVLLNTDFIDNSAGVDTSDHEVNIKILLNDVVQAKTLCFDARNALLASMTDDVAQLVLWDNIRQNQALSLMERMSVKRLGSKQHFIRTLERQGLLDRQIEFLPSDAELSARKARGLGL	failed
GYTPQQLDSMVRKQDWMFLLSDRVKRSAMSLNEREKSEKYVFSFPFTKSPKDAVSGGIIKGQNLANLFTELTVGYHDSVDFNKLPIPFACVSQNIVNGEQIVFHNGILATAMRASMAIPGVFTPVRKDSMILIDGGMINNYPVDVARSMGADIIIGVDVQNNLKGID	failed
HDLALSGNAYKVRLFLSLIGREATLRPVDFLNREHKTQAFLRMNPRGQIPVLEDGELQLGDSHAILVYLARRHADPVWYPLDPVSQGRIAYWLSYSANEVQNGPASARLITRFNLPLDREQTHQRGLEVLRLVDRHLAEHRWLAQGEQPSIADVALYPYLALAPEGGLALDHYPALNAWIARIRALPGYIPMPGL	not failed
HKEFAVTMRPTEASERCHLRGSYTLRAGESALELWGGPEPGTQLYDWPYRFLRRFGRDKVTFSFEAGRRCVSGEGNFEFETRQGNEIFLALEEAISAQKN	not failed
HKSMSKMKSTLKQFISMGNMLTAENNFFRQMQGLLSETTEIAAMTGGIIFLADKQEGHFTPTAFRWNGENIPVAEMPSLSITEDSFTTFQPVLEGKTIAGTLNKENIFHQLQDFLQPYLPLRFVAVPMKTHDKQLLGFLLLFNPYQLNAEREHSKIQLVNALVGSLSVSVETQQLLQEQKNLLNA	failed
